Results as given in paper PMC4357141.

Molecular target: GST-sPol_PR_(D25N) (Glutathione S-Transferase tagged HIV-1 Pol polyprotein with a catalytically dead protease) (HIV-1)
Assay: AlphaScreen or HTRF; titration: GST-sPol_PR_(D25N) constant at 20 nM, WT or D366N Flag-LEDGF/p75 titrated from 50 nM downward (1:2.5 series); glutathione donor and anti-Flag acceptor beads; 25 mM Tris/HCl pH 7.5, 150 mM NaCl, 1 mM DTT, 1 mM MgCl2, 0.1% BSA, 0.1% Tween 20; 1 h at 4°C, then 1 h at 23°C with beads; apparent

For “Flag-LEDGF/p75 WT (lens epithelium-derived growth factor p75) (from UniProt O75475 1-530) (natural protein)”, the Kd was 3.1 nM.
